T1: recombinant human CCL22 (human, UniProt O00626 25-93)
T1 construct: also called MDC
T1 sequence (looked up): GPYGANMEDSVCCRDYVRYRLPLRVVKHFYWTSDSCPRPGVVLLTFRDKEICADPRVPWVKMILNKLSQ

T2: recombinant human CCL21 (human, UniProt O00585 24-134)
T2 construct: also called 6Ckine/SLC
T2 sequence (looked up): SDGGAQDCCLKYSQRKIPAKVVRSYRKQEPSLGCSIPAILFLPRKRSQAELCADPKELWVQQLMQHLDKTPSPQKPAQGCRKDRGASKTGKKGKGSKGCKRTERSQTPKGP

T3: recombinant human CCL19 (human, UniProt Q99731 22-98)
T3 construct: also called MIP-3b
T3 sequence (looked up): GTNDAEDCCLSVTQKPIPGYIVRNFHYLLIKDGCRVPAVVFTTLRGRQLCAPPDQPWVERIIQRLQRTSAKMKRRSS

T4: recombinant human CCL1 (human, UniProt P22362 24-96, limits assumed)
T4 sequence (looked up): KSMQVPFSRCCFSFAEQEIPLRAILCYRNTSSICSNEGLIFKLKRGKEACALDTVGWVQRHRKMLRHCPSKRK

T5: recombinant human CXCL13 (human, UniProt O43927 23-109)
T5 construct: also called BCA-1/BLC
T5 sequence (looked up): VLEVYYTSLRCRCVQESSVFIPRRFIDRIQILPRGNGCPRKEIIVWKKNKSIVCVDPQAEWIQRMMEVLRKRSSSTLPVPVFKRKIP

T6: recombinant human CXCL2 (human, UniProt P19875 35-107)
T6 construct: also called GROβ
T6 sequence (looked up): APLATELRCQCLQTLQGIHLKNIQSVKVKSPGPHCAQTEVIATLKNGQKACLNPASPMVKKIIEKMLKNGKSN

T7: rhesus CCL20-secreted alkaline phosphatase (SEAP) fusion (rhesus monkey)
T7 construct: also called rCCL20; rhesus CCL20-SEAP; not shown: the SEAP reporter (cDNA from Clontech pSEAP-Enhancer) and its junction to CCL20
T7 chain: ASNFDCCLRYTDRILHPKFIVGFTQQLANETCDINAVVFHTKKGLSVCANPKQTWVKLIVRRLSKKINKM

T8: cynomolgus CCL20-secreted alkaline phosphatase (SEAP) fusion (cynomolgus monkey)
T8 construct: also called cCCL20; cynomolgus CCL20-SEAP; not shown: the SEAP reporter (cDNA from Clontech pSEAP-Enhancer) and its junction to CCL20
T8 chain: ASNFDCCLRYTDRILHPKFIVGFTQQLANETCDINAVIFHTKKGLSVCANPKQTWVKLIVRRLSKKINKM

B1: mouse anti-human CCL20 monoclonal antibody 36F7C10 (antibody, V domains shown)
VH: QVQLQQPGAELVKPGASVKMSCKASGYTFTNYWMHWVKQRPGQGLEWIGVIDPSDSYTTYNQKFKGKATLTVDTSSSTAYMQLSSLTSEDSAVYYCTRGNYGVDYAMDYWGQGTSVTVSS
VL: DIQMTQSPASLSASVGETVTITCGASENIYGALNWYQRKQGKSPQLLIYGATNLADGMSSRFSGSGSGRQYSLKISSLHPDDVATYYCQNVLITPYTFGGGTKLEIK
notes: Mouse hybridoma antibody; also called MouseMAb; parental mouse clone 36F7C10
B2: chimeric 36F7C10 antibody (36F7C10-hFc) (antibody, V domains shown)
VH: QVQLQQPGAELVKPGASVKMSCKASGYTFTNYWMHWVKQRPGQGLEWIGVIDPSDSYTTYNQKFKGKATLTVDTSSSTAYMQLSSLTSEDSAVYYCTRGNYGVDYAMDYWGQGTSVTVSS
VL: DIQMTQSPASLSASVGETVTITCGASENIYGALNWYQRKQGKSPQLLIYGATNLADGMSSRFSGSGSGRQYSLKISSLHPDDVATYYCQNVLITPYTFGGGTKLEIK
notes: also called chimeric 36F710; Chimeric MAb
B3: humanized anti-human CCL20 antibody 36LK3/36HC2 (antibody, human IgG1, kappa, V domains shown)
VH: QVQLVQSGAEVKKPGASVKVSCKASGYTFTNYWMHWVRQAPGQGLEWMGVIDPSDSYTTYAQKFQGRVTMTVDTSTSTVYMELSSLRSEDTAVYYCARGNYGVDYAMDYWGQGTLVTVSS
VL: DIQMTQSPSSLSASVGDRVTITCGASENIYGALNWYQRKPGKAPKLLIYGATNLADGVPSRFSGSGSGRDYTLTISSLQPEDFATYYCQNVLITPYTFGQGTKLEIKR
notes: expressed in HEK293 cells; also called HC2/LK3; HC2LK3
B4: humanized anti-human CCL20 antibody 36LC3/36HC2 (antibody, human IgG1, kappa, V domains shown)
VH: QVQLVQSGAEVKKPGASVKVSCKASGYTFTNYWMHWVRQAPGQGLEWMGVIDPSDSYTTYAQKFQGRVTMTVDTSTSTVYMELSSLRSEDTAVYYCARGNYGVDYAMDYWGQGTLVTVSS
VL: DIQMTQSPSSLSASVGDRVTITCRASENIYGALNWYQQKPGKAPKLLIYGATNLADGVPSRFSGSGSGRQYSLTISSLQPEDFATYYCQNVLITPYTFGGGTKLEIKR
notes: expressed in HEK293 cells; also called HC2/LC3; HC2LC3

Columns and labels:
recombinant human CCL22 = molecular target: T1, recombinant human CCL22; experiment: ELISA, plate-bound chemokine (1 ug/ml), antibody 10 ug/ml, OD450
Protocol: (§1) The wells of a 96-well plate were coated with 1 μg/ml of the recombinant human chemokines in PBS (−). After overnight incubation at 4° C., the wells were blocked with 1× Block-Ace (Dainippon Sumitomo Pharma, UK-B80) for 1 hour at room temperature. After washing twice with 0.02% Tween 20/PBS (−), we added 50 μl of 10 μg/ml purified 36F7C10, chimeric 36F710, HC2/LK3, or HC2/LC3 in 0.02% Tween 20/PBS (−) to each well. The wells were incubated for 1 hour at room temperature and washed three times as described in Example 3. […] After washing five times, a TMBZ (3,3′,5,5′-tetramethylbenzidine) solution (1%, in N,N-Dimethylformamide) was added to the wells and incubated for 15-30 minutes. The reaction was stopped by adding an equal volume of a 2 M H₂SO₄ stopping solution, and the optical density was read at 450 nm by ARVO (PerkinElmer).

recombinant human CCL21 = molecular target: T2, recombinant human CCL21; experiment: as above
Protocol: as §1

recombinant human CCL19 = molecular target: T3, recombinant human CCL19; experiment: as above
Protocol: as §1

recombinant human CCL1 = molecular target: T4, recombinant human CCL1; experiment: as above
Protocol: as §1

recombinant human CXCL13 = molecular target: T5, recombinant human CXCL13; experiment: as above
Protocol: as §1

recombinant human CXCL12 = molecular target: T9, recombinant human CXCL12 (human, UniProt P48061-2 22-89); experiment: as above
T9 construct: also called SDF-1/PBSF
T9 sequence (P48061 22-89 limits assumed): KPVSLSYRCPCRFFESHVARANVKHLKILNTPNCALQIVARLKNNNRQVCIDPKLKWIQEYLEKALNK
Protocol: as §1

recombinant human CXCL2 = molecular target: T6, recombinant human CXCL2; experiment: as above
Protocol: as §1

[1] = molecular target: T10, human CCL20 anchored via a His-tag (human, UniProt P78556 27-96); experiment: ELISA on His-tag anchored human CCL20, antibody titrated (x axis 'Ab conc. (ug/ml)', falling from left to right), Abs 450
T10 construct: Construct not described; also called His-tag anchored CCL20; not shown: His-tag
T10 sequence (P78556 27-96 limits assumed): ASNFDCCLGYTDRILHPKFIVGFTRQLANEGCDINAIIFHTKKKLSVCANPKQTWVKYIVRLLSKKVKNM

[2] = molecular target: T11, human CCL20-secreted alkaline phosphatase (SEAP) fusion (human, UniProt P78556 27-96); experiment: SPR (Biacore), CCL20-SEAP captured by anti-SEAP, antibody injected (bivalent format), 1:1 Langmuir
T11 construct: also called hCCL20; human CCL20-SEAP; not shown: secreted alkaline phosphatase (SEAP), cDNA from pSEAP-Enhancer vector (Clontech)
T11 sequence (P78556 27-96): as the sequence (P78556 27-96 limits assumed) above
Protocol: (§2) We also used surface plasmon resonance (Biacore™) analysis to test whether HC2/LC3 and HC2/LK3 can bind to mouse, cynomolgus, or rhesus macaque CCL20 orthologs. Monoclonal mouse anti-human placental alkaline phosphatase was immobilized on all four flow cells of a CM5 chip at a flow rate of 25 μl/min. 25 μl of a 2 nM solution of human, rhesus, cynomolgus, or mouse CCL20-SEAP in HBS-EP buffer was injected over flow cell 2, 3, or 4. For antibody binding, 240 μl of 0-80 nM dilutions of HC2/LC3, HC2/LK3, or 2F5-5 MAb in HBS-EP buffer (or buffer alone) was injected over all four flow cells at a flow rate of 50 μl/min. Dissociation followed for 45 min. Flow cell 1 (anti-SEAP alone) was used as a reference for all flow cells. Regeneration of the flow cells was performed with 10 mM glycine at pH 2.25. Due to regeneration effects on the capturing capacity of the chips, antibody injections were performed sequentially from low to high concentration. Data fitting was performed using a 1:1 Langmuir model.
(§3) In contrast, chimeric, HC2/LC3, and HC2/LK3 antibodies effectively bound to human, rhesus, and cynomolgus CCL20 (Table 17).

[3] = molecular target: T7, rhesus CCL20-secreted alkaline …; experiment: as above
Protocol: as §2, §3

[4] = molecular target: T8, cynomolgus CCL20-secreted alkaline …; experiment: as above
Protocol: as §2, §3

Binder	binding result (recombinant human CCL22)	binding result (recombinant human CCL21)	binding result (recombinant human CCL19)	binding result (recombinant human CCL1)	binding result (recombinant human CXCL13)	binding result (recombinant human CXCL12)	binding result (recombinant human CXCL2)	EC50 (read off the curve) [1] [ng/mL]	Kd [2] [nM]	koff [2] [s⁻¹]	kon [2] [M⁻¹ s⁻¹]	Kd [3] [nM]	koff [3] [s⁻¹]	kon [3] [M⁻¹ s⁻¹]	Kd [4] [nM]	koff [4] [s⁻¹]	kon [4] [M⁻¹ s⁻¹]
B1	no binding (tested: 10 ug/ml)	no binding (tested: 10 ug/ml)	no binding (tested: 10 ug/ml)	no binding (tested: 10 ug/ml)	no binding (tested: 10 ug/ml)	no binding (tested: 10 ug/ml)	no binding (tested: 10 ug/ml)	~5									
B2	no binding (tested: 10 ug/ml)	no binding (tested: 10 ug/ml)	no binding (tested: 10 ug/ml)	no binding (tested: 10 ug/ml)	no binding (tested: 10 ug/ml)	no binding (tested: 10 ug/ml)	no binding (tested: 10 ug/ml)	~8	0.00716	2.08e-05	2.9e+06	0.00605	1.78e-05	2.94e+06	0.0132	5.04e-05	3.83e+06
B3	no binding (tested: 10 ug/ml)	no binding (tested: 10 ug/ml)	no binding (tested: 10 ug/ml)	no binding (tested: 10 ug/ml)	no binding (tested: 10 ug/ml)	no binding (tested: 10 ug/ml)	no binding (tested: 10 ug/ml)	~6	0.0118	3.39e-05	2.88e+06	0.0312	8.21e-05	2.63e+06	0.0283	0.000149	5.28e+06
B4	no binding (tested: 10 ug/ml)	no binding (tested: 10 ug/ml)	no binding (tested: 10 ug/ml)	no binding (tested: 10 ug/ml)	no binding (tested: 10 ug/ml)	no binding (tested: 10 ug/ml)	no binding (tested: 10 ug/ml)	~6	0.00471	2.68e-05	5.69e+06	0.0182	7.51e-05	4.13e+06	0.0155	0.000134	8.64e+06
